Assay results taken from patent US20070202079A1, “Therapeutic compositions and methods useful in modulating protein tyrosine phosphatases” (priority 2006, published 2007).
Substitutions are numbered along the chain they refer to.

Experiments:
PRL-3 = target: T1, PRL-3 (Homo sapiens, UniProt O75365); test: in vitro PTPase assay, recombinant PRL-3; assay type: biochemical; conditions: DiFMUP substrate
T1 construct: cDNAs of human PRL-1, PRL-2 and PRL-3 coding region were derived by RT-PCR; made in house; host or cells: DH5a bacteria (E. coli)
From the text: Sodium stibogluconate, suramin, sodium orthovanadate and GST fusion protein of SHP-1 have been described previously (Pathak et al., J. Immunol. 167, 3391 (2001)). Meglumine antimonate was obtained from Aventis. cDNAs of human PRL-1, PRL-2 and PRL-3 coding region were derived by RT-PCR from H9 cells (Safai, et al., Lancet 1, 1438 (1984)) and inserted in frame into the pGEX vector. cDNA of PRL-1R86 was generated by recombinant DNA technique using PRL-1 cDNA as template following established procedures (Jiao, et al., Mol. Cell. Biol. 16, 6985 (1996)). GST fusion proteins of the PRL phosphatases were prepared from DH5a bacteria transformed with the pGEX fusion protein constructs as described previously (Yi, et al., Mol. Cell. Biol. 12, 836 (1992)). cDNAs encoding the PRLs tagged at the N-termini with the Flag epitope (Castrucci, et al., J. Virol. 66, 4647 (1992)) were generated via recombinant DNA technique, sequenced to confirm their identities and cloned into the pBabepuro vector (Yang, et al., Blood 91, 3746 (1998)). Anti-Flag monoclonal antibody (M2, Sigma) was purchased from a commercial source. A synthetic phosphotyrosine peptide (Arg-Arg-Leu-Ile-Glu-Asp-Ala-Gle-Tyr-Al- -a-Ala-Arg-Gly (SEQ ID NO: 3), wherein the tyrosine is phosphorylated; UBI) and DiFMUP (6, 8-difluoro-4-methylumbelliferyl phosphate, Molecular Probes) were purchased as substrates for PTPase assays.
(§1) In vitro PTPase assays were used to determine the effects of compounds on recombinant PTPases, following established procedures using a synthetic phosphotyrosine peptide or DiFMUP as the substrate (Pathak et al., J. Immunol. 167, 3391 (2001)). Briefly, individual PTPases (0.1 μg/reaction) in 50 μL of PTPase buffer (50 mM Tris, pH 7.4) were incubated at 22° C. for 10 minutes or as indicated in the absence or presence of inhibitory compounds. Substrates (0.2 mM phosphotyrosine peptide) were then added and allowed to react at 22° C. for 18 hrs. PTPase activity of individual reactions was measured by adding 100 μL of malachite green solution (UBI) and then quantifying the amounts of free phosphate cleaved by the PTPase from the peptide substrate by spectrometry (OD660 nm). PTPase assays using DiFMUP as a substrate were conducted following a previously described procedure (Matter, et al., Biochem. Biophys. Res. Comm. 283, 1061 (2001)). Relative PTPase activities were calculated based on the formula: (PTPase activity in the presence of an inhibitory compound/PTPase activity in the absence of the compound)× 100%. To assess the reversibility of PTPase inhibition, GST fusion proteins of the PTPases bound on glutathione beads (Pharmacia) were pre-incubated with cold Tris buffer (50 mM Tris, pH 7.0) or Tris buffer containing the inhibitor at 4° C. for 30 minutes. The beads were then washed three times in cold Tris buffer or not washed prior to subjecting to in vitro PTPase assays.

SHP-1 = target: T2, SHP-1 (Mus musculus, UniProt P29351); test: in vitro PTPase assay, GST/SHP-1; assay type: biochemical
T2 construct: made in house
Experimental: In vitro PTPase activities were measured using the commercial protein tyrosine phosphatase assay kit (Upstate Biotechnology, Inc. (“UBI”)) following established procedure known to one of skill in the art. […] Briefly, 0.01 μg of GST/PTPase fusion proteins was incubated in 50 μl of Tris buffer (10 mM Tris, pH 7.4) containing different concentrations of inhibitors or chemicals (0-1,000 μg/ml) at 22° C. for 10 minutes, followed by addition of 0.2 mM of the phosphotyrosine peptide and incubation at 22° […] 100 μl of Malachite Green solution was added and incubated for 5 minutes, and the absorbance at 660 nm was measured after 5 minutes.
To assess the reversibility of inhibition of SHP-1 by PTPase inhibitors, GST/SHP-1 fusion protein bound on glutathione beads were pre-incubated in cold Tris buffer or Tris buffer containing the PTPase inhibitors at 4° C. for 30 minutes. The beads were then either subjected to in vitro PTPase assays or washed 3 times in Tris buffer then subjected to in vitro PTPase assays.
as §1, with “Briefly,” for “In vitro PTPase assays were used to determine the effects of compounds on recombinant PTPases, following established procedures using a synthetic phosphotyrosine peptide or DiFMUP as the substrate (Pathak et al., J. Immunol. 167, 3391 (2001)). Briefly,”, “PTPase assays using DiFMUP as a substrate were conducted following a previously described procedure (Matter, et al., Biochem. Biophys. Res. Comm. 283, 1061 (2001)).” left out

MKP1 = target: T3, MKP1 (Homo sapiens, UniProt P28562); test: in vitro PTPase assay, GST/MKP1; assay type: biochemical; conditions: levamisole, pentamidine, ketoconazole
T3 construct: a pGEX construct containing the coding region of MKP1 cDNA derived by RT-PCR; made in house; host or cells: DH5a bacteria (E. coli)
T3 sequence (P28562 1-367): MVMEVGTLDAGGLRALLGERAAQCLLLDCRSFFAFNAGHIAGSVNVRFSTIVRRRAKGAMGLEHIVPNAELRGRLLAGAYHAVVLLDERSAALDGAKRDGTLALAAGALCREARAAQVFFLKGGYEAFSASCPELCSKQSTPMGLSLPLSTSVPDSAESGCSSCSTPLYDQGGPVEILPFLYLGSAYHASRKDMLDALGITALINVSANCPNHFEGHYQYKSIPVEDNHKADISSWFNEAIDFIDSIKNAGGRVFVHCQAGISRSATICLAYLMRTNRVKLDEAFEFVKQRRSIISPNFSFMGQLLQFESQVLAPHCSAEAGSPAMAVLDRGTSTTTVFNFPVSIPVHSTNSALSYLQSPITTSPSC
Experimental: In vitro PTPase activities were measured using the commercial protein tyrosine phosphatase assay kit (Upstate Biotechnology, Inc. (“UBI”)) following established procedure known to one of skill in the art. This assay measures the in vitro dephosphorylation of a synthetic phosphotyrosine peptide of the sequence Arg-Arg-Leu-Ile-Glu-Asp-Ala-Gle-T- -yr-Ala-Ala-Arg-Gly, wherein the tyrosine is phosphorylated (SEQ ID NO: 3). Briefly, 0.01 μg of GST/PTPase fusion proteins was incubated in 50 μl of Tris buffer (10 mM Tris, pH 7.4) containing different concentrations of inhibitors or chemicals (0-1,000 μg/ml) at 22° C. for 10 minutes, followed by addition of 0.2 mM of the phosphotyrosine peptide and incubation at 22° C. for 18 hours. 100 μl of Malachite Green solution was added and incubated for 5 minutes, and the absorbance at 660 nm was measured after 5 minutes.
(§2) In vitro PTPase assays were used to determine the effects of levamisole (Sigma), pentamidine (American Pharmaceutical Partners, Inc.), and ketoconazole (Sigma) on recombinant PTPases, following established procedures (Pathak et al., J. Immunol. 167, 3391 (2001); Pathak et al., Leukemia 16, 2285 (2002), Yi et al., J. Immunol. 169, 5978 (2002)) using a synthetic phosphotyrosine peptide or DiFMUP as the substrate as detailed above in section I.A.2.

GSTm8 = test: in vitro PTPase assay, GSTm8; assay type: biochemical; conditions: 3-4 μg/ml or 10-100 μg/ml
From the text: as §2

[1] = system: T4, Synthetic phosphotyrosine peptide Arg-Arg-Leu-Ile-Glu-Asp-Ala-Gle-Tyr-Ala-Ala-Arg-Gly (SEQ ID NO: 3), tyrosine phosphorylated
T4 sequence: RRLIEDAEYAARG

[2] = target: T5, Synthetic phosphotyrosine peptide Arg-Arg-Leu-Ile-Glu-Asp-Ala-Gle-Tyr-Ala-Ala-Arg-Gly (SEQ ID NO: 3), tyrosine phosphorylated (not fully specified)
T5 chain: RRLIEDAEYAARG

T2 sequence (P29351 whole entry): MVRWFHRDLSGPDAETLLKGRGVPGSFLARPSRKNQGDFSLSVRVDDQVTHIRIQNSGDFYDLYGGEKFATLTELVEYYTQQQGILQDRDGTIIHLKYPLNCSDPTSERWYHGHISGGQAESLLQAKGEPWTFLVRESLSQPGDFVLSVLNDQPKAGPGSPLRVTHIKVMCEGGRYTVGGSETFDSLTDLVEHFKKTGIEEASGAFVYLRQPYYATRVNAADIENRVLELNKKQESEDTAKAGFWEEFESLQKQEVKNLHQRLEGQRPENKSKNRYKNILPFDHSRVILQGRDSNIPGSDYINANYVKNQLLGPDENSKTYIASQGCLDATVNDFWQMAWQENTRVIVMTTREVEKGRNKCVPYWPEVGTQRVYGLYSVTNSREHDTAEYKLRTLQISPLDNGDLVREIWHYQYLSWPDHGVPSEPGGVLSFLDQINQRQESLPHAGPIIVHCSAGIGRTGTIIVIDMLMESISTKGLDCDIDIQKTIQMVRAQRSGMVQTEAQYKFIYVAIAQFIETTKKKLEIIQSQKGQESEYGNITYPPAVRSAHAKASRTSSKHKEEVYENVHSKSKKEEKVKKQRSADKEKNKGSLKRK
T1 sequence (O75365 whole entry): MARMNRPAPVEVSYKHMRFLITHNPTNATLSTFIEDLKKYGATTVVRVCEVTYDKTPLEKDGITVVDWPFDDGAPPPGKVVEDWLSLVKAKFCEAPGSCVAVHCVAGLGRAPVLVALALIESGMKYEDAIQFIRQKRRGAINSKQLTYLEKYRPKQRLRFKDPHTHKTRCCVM

Cc1ccc(C(=O)Nc2ccc(S(=O)(=O)O)c3cc(S(=O)(=O)O)cc(S(=O)(=O)O)c23)cc1NC(=O)c1cccc(NC(=O)Nc2cccc(C(=O)Nc3cc(C(=O)Nc4ccc(S(=O)(=O)O)c5cc(S(=O)(=O)O)cc(S(=O)(=O)O)c45)ccc3C)c2)c1 [Suramin]
inhibition of PRL-3 compared with sodium stibogluconate (PRL-3): less effective
inhibition of SHP-1 compared with sodium stibogluconate (SHP-1; comparable conditions): less effective
inhibition of GST/SHP-1 after washing (reversibility) (SHP-1; pre-incubated 30 min at 4 °C, beads washed 3 times): almost completely removed by the washing process

c1ccc([C@H]2CN3CCSC3=N2)cc1 [levamisole]
inhibition of MKP1 (MKP1): substantial inhibition
inhibitory activity against GSTm8 (GSTm8): no obvious inhibitory activity
inhibitory activity against SHP-1 (SHP-1; 3-4 μg/ml or 10-100 μg/ml): no obvious inhibitory activity

[Na+].[Na+].[Na+].[O]=[V]([O-])([O-])[O-] [sodium orthovanadate]
inhibition of PRL-3 compared with sodium stibogluconate (PRL-3): less effective

GST fusion protein of SHP-1
PTPase activities against the peptide substrate (660 nm absorbance above background) [1]: 660 nm absorbance approximately 0.6 above background (0.03)

GST fusion protein of SHP-2
PTPase activities against the peptide substrate (660 nm absorbance above background) [1]: 660 nm absorbance approximately 0.6 above background (0.03)

GST fusion protein of mitogen-activated protein kinase phosphatase 1 (MKP1)
PTPase activities against the peptide substrate (660 nm absorbance above background) [1]: 660 nm absorbance approximately 0.6 above background (0.03)

GST fusion protein of protein tyrosine phosphatase 1B (PTP1B)
PTPase activities against the peptide substrate (660 nm absorbance above background) [1]: 660 nm absorbance approximately 0.6 above background (0.03)

B1: GST fusion protein of PRL-1R86 (recombinant PRL-1 protein containing R86) (protein)
chain: MARMNRPAPVEVTYKNMRFLITHNPTNATLNKFIEELKKYGVTTIVRVCEATYDTTLVEKEGIHVLDWPFDDGAPPSNQIVDDWLRLVKIKFREEPGCCIAVHCVAGLGRAPVLVALALIEGGMKYEDAVQFIRQKRRGAFNSKQLLYLEKYRPKMRLRFKDSNGHRNNCCIQ
in vitro PTPase activity [2]: showed in vitro PTPase activity similar to that of wild type PRL-1

B2: Flag-PRL-1R86 (Flag-tagged PRL-1 R86 mutant) (protein)
chain: B1 chain
phosphatase activities of anti-Flag immunocomplexes [2]: showed phosphatase activities well above the background activity of the vector control cells

B3: GST fusion protein of PRL-1 (recombinant wild type PRL-1) (protein)
chain: B1 chain with R86S
in vitro PTPase activity [2]: showed in vitro PTPase activity similar to that of wild type PRL-1

B4: Flag-PRL-1 (human PRL-1 tagged at the N-terminus with the Flag epitope) (protein)
chain: B1 chain with R86S
PTPase activity of anti-Flag immunocomplexes [2]: a markedly higher PTPase activity (about 23 folds) over that of control transfectants
phosphatase activities of anti-Flag immunocomplexes [2]: showed phosphatase activities well above the background activity of the vector control cells
